Measurements taken from article PMC8215294.
Numbering of substitutions follows the chain as printed. In names and notes the source's numbering stands. Several values for one entry are separate records, joined by “and”; a condition that tells them apart may be missing. Equal entries are not always repeated.

Tests used:
Q94AM1 = assay: SEC; purified His-tagged TOPs treated 30 min at RT with DTTred, DTTox, GSH or GSSG, purified again and dialysed; XBridge BEH200A SEC column, 50 mM sodium phosphate, 150 mM NaCl, 0.02% NaN3, pH 7.0
[1] = biological target: Arabidopsis thaliana thimet oligopeptidase TOP1, full-length (A. thaliana) (UniProt Q94AM1); assay: as above
TOP1^C548A, Q94AM1 = biological target: T1, TOP1^C548A, Q94AM1; assay: size-exclusion chromatography (SEC), peak area quantification; details: chain shown with the change; treatment (Ctrl or GSSG) not stated for this panel; parent: est. 38; read off a plot
T1 chain: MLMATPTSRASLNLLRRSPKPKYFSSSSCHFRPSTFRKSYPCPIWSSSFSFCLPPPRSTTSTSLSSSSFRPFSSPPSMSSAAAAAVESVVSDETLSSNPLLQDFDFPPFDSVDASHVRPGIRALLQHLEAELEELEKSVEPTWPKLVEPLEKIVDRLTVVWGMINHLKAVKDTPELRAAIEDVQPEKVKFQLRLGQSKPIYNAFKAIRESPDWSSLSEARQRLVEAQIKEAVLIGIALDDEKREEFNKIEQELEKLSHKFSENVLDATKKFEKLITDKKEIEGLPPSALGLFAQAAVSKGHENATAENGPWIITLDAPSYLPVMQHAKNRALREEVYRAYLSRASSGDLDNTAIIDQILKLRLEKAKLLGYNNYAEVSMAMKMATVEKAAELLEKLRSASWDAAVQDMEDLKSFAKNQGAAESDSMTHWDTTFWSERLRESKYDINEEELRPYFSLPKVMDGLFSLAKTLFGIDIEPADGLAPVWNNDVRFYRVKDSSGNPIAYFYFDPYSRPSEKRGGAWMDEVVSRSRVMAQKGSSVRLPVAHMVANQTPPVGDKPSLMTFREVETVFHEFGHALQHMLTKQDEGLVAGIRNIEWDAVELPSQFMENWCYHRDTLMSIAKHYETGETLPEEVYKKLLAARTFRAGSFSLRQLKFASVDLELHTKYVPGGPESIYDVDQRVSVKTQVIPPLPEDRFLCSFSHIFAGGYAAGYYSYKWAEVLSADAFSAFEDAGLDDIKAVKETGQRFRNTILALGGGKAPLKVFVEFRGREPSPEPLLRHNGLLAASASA

TOP1^C29A, Q94AM1 = biological target: T2, TOP1^C29A, Q94AM1; assay: as above; details: chain shown with the change; treatment (Ctrl or GSSG) not stated for this panel; parent: est. 38; read off a plot
T2 chain: T1 chain with C29A, A548C

TOP1^C699A, Q94AM1 = biological target: T3, TOP1^C699A, Q94AM1; assay: as above; details: chain shown with the change; treatment (Ctrl or GSSG) not stated for this panel; parent: est. 38; read off a plot
T3 chain: T1 chain with A548C, C699A

TOP1^C42A, Q94AM1 = biological target: T4, TOP1^C42A, Q94AM1; assay: as above; details: chain shown with the change; treatment (Ctrl or GSSG) not stated for this panel; parent: est. 38; read off a plot
T4 chain: T1 chain with C42A, A548C

TOP1^C611A, Q94AM1 = biological target: T5, TOP1^C611A, Q94AM1; assay: as above; details: chain shown with the change; treatment (Ctrl or GSSG) not stated for this panel; parent: est. 38; read off a plot
T5 chain: T1 chain with A548C, C611A

For “Arabidopsis thaliana thimet oligopeptidase TOP1, full-length”, which “monomer/dimer ratio (SEC peak area) after DTTred or DTTox” value (Q94AM1) is on record?
The value was “∼7/1 under both conditions”.

And the “monomer/dimer ratio (SEC peak area) after GSH” value (Q94AM1)?
The value was 3/1 and 2/1 post-GSH and -GSSG, respectively.

And the “monomer/dimer ratio (SEC peak area) after GSSG” value (Q94AM1)?
The value was 3/1 and 2/1 post-GSH and -GSSG, respectively.

“Arabidopsis thaliana thimet oligopeptidase TOP1, full-length (from UniProt Q94AM1 83-791) (enzyme)” was tested. Which stoichiometry N [1] did it give?
Its stoichiometry N is 2 and 3.

B1: Arabidopsis thaliana thimet oligopeptidase TOP1, full-length, Q94AM1 C548A (protein)
chain: T1 chain
Which other: percent dimer (TOP1^C548A, Q94AM1) does the source give for B1 here?
Its other: percent dimer is 18%.

B2: Arabidopsis thaliana thimet oligopeptidase TOP1, full-length, Q94AM1 C29A (protein)
chain: T1 chain with C29A, A548C
B2 was tested. Which other: percent dimer (TOP1^C29A, Q94AM1) did it give?
The other: percent dimer was 2.5%.

B3: Arabidopsis thaliana thimet oligopeptidase TOP1, full-length, Q94AM1 C699A (protein)
chain: T1 chain with A548C, C699A
With B3 as the molecule, how does the other: percent dimer (TOP1^C699A, Q94AM1) read?
Its other: percent dimer is 17%.

B4: Arabidopsis thaliana thimet oligopeptidase TOP1, full-length, Q94AM1 C42A (protein)
chain: T1 chain with C42A, A548C
B4 was tested. Which other: percent dimer (TOP1^C42A, Q94AM1) did it give?
Its other: percent dimer is 12%.

B5: Arabidopsis thaliana thimet oligopeptidase TOP1, full-length, Q94AM1 C611A (protein)
chain: T1 chain with A548C, C611A
For B5, which other: percent dimer (TOP1^C611A, Q94AM1) is on record?
The other: percent dimer was 3.5%.
